Among the targets are CSK (UniProt P41240 1-450, limits assumed); PRKCQ (PKC theta) (UniProt Q04759 1-706, limits assumed); CAMK2B (CaMKII beta) (UniProt Q13554 1-666, limits assumed); RPS6KA5 (MSK1) (UniProt O75582 1-802, limits assumed); CLK2 (UniProt P49760 1-499, limits assumed); MST4 (UniProt Q9P289 1-416, limits assumed); RPS6KA6 (RSK4) (UniProt Q9UK32 1-745, limits assumed).
Common to all, as to test: cell-based or functional assay
For another experiment, the target named is T1, PDK1 (human (printed as (h)), UniProt O15530 1-556, limits assumed).
T1 sequence (looked up): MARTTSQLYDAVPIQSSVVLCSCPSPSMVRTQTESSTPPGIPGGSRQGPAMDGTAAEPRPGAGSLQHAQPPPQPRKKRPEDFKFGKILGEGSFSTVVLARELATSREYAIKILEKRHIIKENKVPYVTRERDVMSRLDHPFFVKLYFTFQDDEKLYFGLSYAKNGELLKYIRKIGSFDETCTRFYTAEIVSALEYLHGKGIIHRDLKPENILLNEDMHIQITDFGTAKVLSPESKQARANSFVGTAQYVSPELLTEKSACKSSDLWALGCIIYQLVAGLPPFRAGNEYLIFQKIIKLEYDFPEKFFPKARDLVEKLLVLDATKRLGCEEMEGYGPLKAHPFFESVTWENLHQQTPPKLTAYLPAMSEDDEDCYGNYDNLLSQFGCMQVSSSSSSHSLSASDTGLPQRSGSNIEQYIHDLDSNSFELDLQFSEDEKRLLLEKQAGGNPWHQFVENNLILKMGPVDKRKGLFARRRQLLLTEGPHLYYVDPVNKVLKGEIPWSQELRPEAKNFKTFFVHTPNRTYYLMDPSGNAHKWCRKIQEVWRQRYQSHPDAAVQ

The experiment “IRAK4 (interleukin-1 …)” deals with T2, IRAK4 (interleukin-1 receptor-associated kinase 4) (UniProt Q9NWZ3 1-460, limits assumed).
T2 sequence (looked up): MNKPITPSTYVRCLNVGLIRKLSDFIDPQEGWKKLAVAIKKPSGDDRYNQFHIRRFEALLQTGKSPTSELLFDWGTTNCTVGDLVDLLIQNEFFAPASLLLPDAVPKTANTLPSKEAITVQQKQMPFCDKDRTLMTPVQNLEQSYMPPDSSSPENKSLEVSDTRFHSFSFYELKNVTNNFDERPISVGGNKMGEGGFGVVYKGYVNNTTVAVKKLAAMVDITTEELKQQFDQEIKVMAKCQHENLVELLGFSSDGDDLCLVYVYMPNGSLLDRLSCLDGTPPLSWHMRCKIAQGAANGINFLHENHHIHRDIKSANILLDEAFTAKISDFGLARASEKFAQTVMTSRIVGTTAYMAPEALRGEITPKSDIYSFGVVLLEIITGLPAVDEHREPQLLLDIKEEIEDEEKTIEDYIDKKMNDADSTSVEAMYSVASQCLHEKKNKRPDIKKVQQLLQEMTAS

The target in the next experiment is T3, GRK7 (UniProt Q8WTQ7 1-553, limits assumed).
T3 sequence (looked up): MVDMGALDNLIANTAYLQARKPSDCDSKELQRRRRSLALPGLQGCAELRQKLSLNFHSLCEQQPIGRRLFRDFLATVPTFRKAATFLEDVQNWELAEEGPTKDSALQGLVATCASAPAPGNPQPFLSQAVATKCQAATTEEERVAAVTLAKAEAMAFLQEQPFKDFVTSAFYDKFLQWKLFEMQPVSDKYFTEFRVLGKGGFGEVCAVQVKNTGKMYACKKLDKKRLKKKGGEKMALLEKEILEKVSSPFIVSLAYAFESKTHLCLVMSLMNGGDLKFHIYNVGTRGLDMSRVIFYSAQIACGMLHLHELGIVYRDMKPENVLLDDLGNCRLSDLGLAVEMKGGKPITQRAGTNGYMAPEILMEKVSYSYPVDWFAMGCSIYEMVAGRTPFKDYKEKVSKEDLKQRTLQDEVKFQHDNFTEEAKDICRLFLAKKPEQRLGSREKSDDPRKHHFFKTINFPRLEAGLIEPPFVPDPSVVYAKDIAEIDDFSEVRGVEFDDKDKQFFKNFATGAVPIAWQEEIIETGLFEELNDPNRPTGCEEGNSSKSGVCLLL

Another experiment concerns the target T4, PRKD1 (PKC mu) (UniProt Q15139 1-912, limits assumed).
T4 sequence (looked up): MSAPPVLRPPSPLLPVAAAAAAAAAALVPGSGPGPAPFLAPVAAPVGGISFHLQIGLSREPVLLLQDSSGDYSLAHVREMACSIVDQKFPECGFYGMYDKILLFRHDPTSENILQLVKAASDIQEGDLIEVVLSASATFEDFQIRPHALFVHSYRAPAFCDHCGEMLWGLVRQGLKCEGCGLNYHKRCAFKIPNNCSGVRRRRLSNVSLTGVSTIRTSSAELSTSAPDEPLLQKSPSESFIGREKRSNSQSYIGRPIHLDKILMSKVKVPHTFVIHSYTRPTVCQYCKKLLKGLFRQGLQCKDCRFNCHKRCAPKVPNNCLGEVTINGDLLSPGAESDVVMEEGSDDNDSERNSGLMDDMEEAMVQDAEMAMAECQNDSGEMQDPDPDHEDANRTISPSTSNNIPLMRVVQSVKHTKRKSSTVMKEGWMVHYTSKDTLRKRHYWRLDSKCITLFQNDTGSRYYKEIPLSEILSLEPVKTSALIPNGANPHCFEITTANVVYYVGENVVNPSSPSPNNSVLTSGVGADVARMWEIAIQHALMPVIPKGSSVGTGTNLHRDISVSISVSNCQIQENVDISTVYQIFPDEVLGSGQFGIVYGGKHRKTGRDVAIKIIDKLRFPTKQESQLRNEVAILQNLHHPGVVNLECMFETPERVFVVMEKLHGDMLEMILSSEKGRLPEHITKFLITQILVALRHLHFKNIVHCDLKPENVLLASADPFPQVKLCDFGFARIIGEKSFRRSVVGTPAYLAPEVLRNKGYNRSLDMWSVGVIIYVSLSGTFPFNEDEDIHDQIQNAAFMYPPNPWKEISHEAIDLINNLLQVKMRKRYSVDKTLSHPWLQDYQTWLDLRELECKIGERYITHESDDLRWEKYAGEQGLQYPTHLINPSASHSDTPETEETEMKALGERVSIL

Chain of CAMK2B (CaMKII beta) (Q13554 whole entry): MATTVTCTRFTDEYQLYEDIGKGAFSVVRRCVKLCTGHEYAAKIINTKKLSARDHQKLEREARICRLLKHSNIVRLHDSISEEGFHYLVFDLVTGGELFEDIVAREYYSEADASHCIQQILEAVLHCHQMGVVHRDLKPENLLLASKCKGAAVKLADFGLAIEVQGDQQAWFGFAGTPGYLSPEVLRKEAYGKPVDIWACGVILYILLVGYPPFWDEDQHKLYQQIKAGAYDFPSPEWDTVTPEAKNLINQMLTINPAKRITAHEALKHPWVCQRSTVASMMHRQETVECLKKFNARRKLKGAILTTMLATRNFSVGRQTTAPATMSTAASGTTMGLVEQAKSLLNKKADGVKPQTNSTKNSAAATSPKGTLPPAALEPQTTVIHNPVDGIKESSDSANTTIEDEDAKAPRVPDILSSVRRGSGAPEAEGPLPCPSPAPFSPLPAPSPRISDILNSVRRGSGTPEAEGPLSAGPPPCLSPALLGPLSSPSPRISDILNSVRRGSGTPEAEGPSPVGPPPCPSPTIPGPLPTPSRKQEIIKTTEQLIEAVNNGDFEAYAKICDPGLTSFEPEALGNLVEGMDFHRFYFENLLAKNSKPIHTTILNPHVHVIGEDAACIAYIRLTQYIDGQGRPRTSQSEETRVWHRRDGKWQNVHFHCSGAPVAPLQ
Chain of PRKCQ (PKC theta) (Q04759 whole entry): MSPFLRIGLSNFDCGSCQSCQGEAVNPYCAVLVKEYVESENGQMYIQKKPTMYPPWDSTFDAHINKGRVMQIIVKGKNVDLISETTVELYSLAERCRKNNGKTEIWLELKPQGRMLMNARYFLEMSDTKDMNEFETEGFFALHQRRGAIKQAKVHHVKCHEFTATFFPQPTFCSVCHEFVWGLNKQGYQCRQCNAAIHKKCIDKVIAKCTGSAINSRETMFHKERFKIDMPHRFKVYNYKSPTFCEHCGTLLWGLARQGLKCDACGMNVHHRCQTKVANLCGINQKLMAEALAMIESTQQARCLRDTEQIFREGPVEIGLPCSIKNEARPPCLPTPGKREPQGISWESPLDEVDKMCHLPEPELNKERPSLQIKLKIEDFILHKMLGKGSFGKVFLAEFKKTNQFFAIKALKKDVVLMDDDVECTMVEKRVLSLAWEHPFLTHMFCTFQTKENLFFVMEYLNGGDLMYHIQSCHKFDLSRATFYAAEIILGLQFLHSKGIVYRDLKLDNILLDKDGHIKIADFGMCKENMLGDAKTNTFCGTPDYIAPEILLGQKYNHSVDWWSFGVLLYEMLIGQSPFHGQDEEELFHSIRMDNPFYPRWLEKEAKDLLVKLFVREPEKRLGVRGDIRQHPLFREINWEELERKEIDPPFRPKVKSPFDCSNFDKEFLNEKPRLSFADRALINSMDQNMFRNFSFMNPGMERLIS
Chain of RPS6KA6 (RSK4) (Q9UK32 whole entry): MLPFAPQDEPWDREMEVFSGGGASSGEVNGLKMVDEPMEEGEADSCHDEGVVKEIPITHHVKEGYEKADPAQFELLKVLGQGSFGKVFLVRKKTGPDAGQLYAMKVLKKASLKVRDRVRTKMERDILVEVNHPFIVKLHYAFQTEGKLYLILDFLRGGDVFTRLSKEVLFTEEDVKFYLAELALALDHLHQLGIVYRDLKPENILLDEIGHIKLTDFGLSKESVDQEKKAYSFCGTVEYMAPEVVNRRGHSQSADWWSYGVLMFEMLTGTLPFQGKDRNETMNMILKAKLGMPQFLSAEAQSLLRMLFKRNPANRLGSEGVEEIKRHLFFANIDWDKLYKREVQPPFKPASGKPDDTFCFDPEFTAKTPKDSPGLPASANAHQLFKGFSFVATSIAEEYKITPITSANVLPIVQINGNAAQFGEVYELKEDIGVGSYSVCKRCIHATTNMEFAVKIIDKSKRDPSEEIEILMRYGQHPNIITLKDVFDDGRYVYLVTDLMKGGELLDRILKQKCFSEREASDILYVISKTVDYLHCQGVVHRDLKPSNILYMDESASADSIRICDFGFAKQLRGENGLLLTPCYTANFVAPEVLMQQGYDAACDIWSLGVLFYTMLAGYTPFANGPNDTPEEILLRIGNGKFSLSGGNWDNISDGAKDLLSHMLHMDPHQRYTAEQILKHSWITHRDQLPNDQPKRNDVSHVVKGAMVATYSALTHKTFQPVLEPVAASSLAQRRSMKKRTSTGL
Chain of CSK (P41240 whole entry): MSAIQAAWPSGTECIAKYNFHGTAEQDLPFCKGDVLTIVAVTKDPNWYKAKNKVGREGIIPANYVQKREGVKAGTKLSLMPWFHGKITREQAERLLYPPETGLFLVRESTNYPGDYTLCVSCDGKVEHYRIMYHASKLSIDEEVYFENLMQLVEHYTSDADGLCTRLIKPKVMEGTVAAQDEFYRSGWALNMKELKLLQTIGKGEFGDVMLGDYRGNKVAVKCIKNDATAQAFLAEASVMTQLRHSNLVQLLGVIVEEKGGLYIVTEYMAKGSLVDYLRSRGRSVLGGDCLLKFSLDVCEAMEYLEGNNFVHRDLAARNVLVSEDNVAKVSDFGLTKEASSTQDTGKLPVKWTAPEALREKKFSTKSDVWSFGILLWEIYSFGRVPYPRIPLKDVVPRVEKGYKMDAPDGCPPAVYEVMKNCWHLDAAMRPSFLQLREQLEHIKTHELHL
Chain of CLK2 (P49760 whole entry): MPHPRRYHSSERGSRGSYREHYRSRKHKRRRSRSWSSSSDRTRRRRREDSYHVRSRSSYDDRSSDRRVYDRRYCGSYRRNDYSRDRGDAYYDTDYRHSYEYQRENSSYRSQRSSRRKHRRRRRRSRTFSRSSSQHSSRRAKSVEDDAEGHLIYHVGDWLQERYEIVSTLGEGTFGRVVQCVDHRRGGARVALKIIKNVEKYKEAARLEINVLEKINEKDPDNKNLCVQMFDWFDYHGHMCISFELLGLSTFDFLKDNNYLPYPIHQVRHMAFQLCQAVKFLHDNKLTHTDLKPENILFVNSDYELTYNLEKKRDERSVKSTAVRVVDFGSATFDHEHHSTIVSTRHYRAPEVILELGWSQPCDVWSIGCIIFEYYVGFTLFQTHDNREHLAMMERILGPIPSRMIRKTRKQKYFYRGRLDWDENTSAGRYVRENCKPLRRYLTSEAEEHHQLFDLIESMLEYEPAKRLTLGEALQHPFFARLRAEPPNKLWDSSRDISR
Chain of RPS6KA5 (MSK1) (O75582 whole entry): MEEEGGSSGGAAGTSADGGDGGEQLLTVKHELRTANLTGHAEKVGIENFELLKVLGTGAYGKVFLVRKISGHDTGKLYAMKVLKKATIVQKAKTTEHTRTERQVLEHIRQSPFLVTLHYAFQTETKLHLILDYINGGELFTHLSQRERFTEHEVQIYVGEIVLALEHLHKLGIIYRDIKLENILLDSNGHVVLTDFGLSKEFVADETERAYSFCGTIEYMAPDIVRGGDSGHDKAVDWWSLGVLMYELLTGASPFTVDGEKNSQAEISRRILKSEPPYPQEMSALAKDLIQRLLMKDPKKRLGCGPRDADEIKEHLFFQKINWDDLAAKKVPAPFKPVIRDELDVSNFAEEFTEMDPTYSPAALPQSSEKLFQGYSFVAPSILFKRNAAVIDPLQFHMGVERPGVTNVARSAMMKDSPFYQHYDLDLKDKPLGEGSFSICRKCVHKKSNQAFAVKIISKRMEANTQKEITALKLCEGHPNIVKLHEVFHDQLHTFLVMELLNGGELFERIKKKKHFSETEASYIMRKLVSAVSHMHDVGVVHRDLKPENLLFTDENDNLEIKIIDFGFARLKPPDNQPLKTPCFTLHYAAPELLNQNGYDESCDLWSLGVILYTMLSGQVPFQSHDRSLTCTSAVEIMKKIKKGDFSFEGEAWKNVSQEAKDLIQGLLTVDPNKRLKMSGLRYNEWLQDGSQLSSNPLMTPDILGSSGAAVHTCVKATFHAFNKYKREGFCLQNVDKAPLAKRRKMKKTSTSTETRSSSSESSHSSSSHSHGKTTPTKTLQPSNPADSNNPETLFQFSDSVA
Chain of MST4 (Q9P289 whole entry): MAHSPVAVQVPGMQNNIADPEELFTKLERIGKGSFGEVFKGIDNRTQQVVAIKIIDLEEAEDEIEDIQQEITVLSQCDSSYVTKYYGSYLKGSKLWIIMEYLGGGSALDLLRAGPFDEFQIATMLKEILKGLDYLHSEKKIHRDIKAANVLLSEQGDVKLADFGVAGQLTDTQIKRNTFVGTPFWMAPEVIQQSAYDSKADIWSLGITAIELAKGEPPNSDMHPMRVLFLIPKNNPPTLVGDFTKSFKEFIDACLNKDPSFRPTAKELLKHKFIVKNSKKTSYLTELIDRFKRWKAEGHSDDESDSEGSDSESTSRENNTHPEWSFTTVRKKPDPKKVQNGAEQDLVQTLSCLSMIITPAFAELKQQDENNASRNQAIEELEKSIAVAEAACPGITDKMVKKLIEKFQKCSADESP

Regarding SGRPPMIVWFNRPFLIAVSHTHGQTILFMAKVINPVGA [D3 peptide], the “% Inhibition mean” value stood at 55.2% in the experiment with CSK; 86.3% with PRKCQ (PKC theta); 90.3% with CAMK2B (CaMKII beta); 64% in the experiment with PDK1; 96% with IRAK4 (interleukin-1 …); 85% with RPS6KA5 (MSK1). In addition, the “% Inhibition mean” value with GRK7 was 49.9%; with CLK2, 65.9%; with MST4, 101%; in the experiment with RPS6KA6 (RSK4), 87.6%; with PRKD1 (PKC mu), 80.6%.

Source of the values: US20100184658A1 (published 2010).
